{"source": "patent US20260242735A1", "about": "(UNIVERSIT T BASEL, published 2026)", "key": {"[1]": {"target": "T1, human wild-type CD33 (human, UniProt P20138 18-364)", "T1 construct": "also called SIGLEC3; P67", "T1 sequence (P20138 18-364 limits assumed)": "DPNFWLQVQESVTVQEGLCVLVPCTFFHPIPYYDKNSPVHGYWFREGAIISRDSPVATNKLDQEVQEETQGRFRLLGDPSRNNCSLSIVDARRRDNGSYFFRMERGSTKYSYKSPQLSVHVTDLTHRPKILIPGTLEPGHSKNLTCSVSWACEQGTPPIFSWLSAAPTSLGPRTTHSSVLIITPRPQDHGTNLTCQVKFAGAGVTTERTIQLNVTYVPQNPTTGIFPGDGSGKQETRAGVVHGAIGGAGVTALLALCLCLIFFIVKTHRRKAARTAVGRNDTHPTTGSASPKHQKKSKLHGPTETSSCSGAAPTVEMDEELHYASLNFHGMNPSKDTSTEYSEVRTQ", "assay": "flow cytometry, Fab at 0.25 ug/ml on HEK293-T cells expressing CD33 against vector alone", "procedure": "(§1) Serial dilutions of each Fab were tested for immunoreactivity against cells expressing wild-type CD33 or vector alone. The optimal screening concentration for the Fabs was determined based on the raw signal values and signal-to-background calculations. Each point represents the mean of four replicates."}, "[2]": {"target": "human CD33 G34A (human, UniProt P20138 18-364)", "sequence (P20138 18-364 G34A limits assumed)": "as the sequence (P20138 18-364 limits assumed) above, with G17A counted along it", "assay": "flow cytometry, alanine scan", "procedure": "(§2) An alanine scan on human CD33 was performed to the determine the residues on CD33 that are involved in binding to the antibodies investigated. […] Briefly, a mutation library of CD33 was created by high-throughput, site-directed mutagenesis. Each residue was individually mutated to alanine, with alanine codons mutated to serine. The mutant library was arrayed in 384-well microplates and transiently transfected into HEK293-T. Following transfection, cells were incubated with the indicated antibodies (IgG or Fab) at concentrations pre-determined using an independent immunofluorescence titration curve on wild type CD33. […] Binding of each antibody to each mutant clone was determined in duplicates. For each point, background fluorescence was subtracted from the raw data, which were then normalized to antibody reactivity with wild type CD33.\n(§3) Critical residues for antibody binding (outlined in dark grey) were residues whose mutations led to a binding of the test Abs of less than 20%. Additional secondary residues (outlined in light grey) were identified that led to a binding of the test Abs of between 20 and 40% as compared to the wild type CD33."}, "[3]": {"target": "human CD33 D18A (human, UniProt P20138 19-364)", "sequence (P20138 18-364 D18A limits assumed)": "as the sequence (P20138 18-364 limits assumed) above, with D1A counted along it", "assay": "flow cytometry, alanine scan", "procedure": "as §2, §3"}, "[4]": {"target": "human CD33 V39A (human, UniProt P20138 18-364)", "sequence (P20138 18-364 V39A limits assumed)": "as the sequence (P20138 18-364 limits assumed) above, with V22A counted along it", "assay": "flow cytometry, alanine scan", "procedure": "as §2, §3"}, "[5]": {"target": "human CD33 F21A (human, UniProt P20138 18-364)", "sequence (P20138 18-364 F21A limits assumed)": "as the sequence (P20138 18-364 limits assumed) above, with F4A counted along it", "assay": "flow cytometry, alanine scan", "procedure": "as §2, §3"}, "[6]": {"target": "human CD33 N20A (human, UniProt P20138 18-364)", "sequence (P20138 18-364 N20A limits assumed)": "as the sequence (P20138 18-364 limits assumed) above, with N3A counted along it", "assay": "flow cytometry, alanine scan", "procedure": "as §2, §3"}, "[7]": {"target": "human CD33 V25A (human, UniProt P20138 18-364)", "sequence (P20138 18-364 V25A limits assumed)": "as the sequence (P20138 18-364 limits assumed) above, with V8A counted along it", "assay": "flow cytometry, alanine scan", "procedure": "as §2, §3"}, "[8]": {"target": "human CD33 P40A (human, UniProt P20138 18-364)", "sequence (P20138 18-364 P40A limits assumed)": "as the sequence (P20138 18-364 limits assumed) above, with P23A counted along it", "assay": "flow cytometry, alanine scan", "procedure": "as §2, §3"}, "[9]": {"target": "human CD33 Q26A (human, UniProt P20138 18-364)", "sequence (P20138 18-364 Q26A limits assumed)": "as the sequence (P20138 18-364 limits assumed) above, with Q9A counted along it", "assay": "flow cytometry, alanine scan", "procedure": "as §2, §3"}, "[10]": {"target": "human CD33 L38A (human, UniProt P20138 18-364)", "sequence (P20138 18-364 L38A limits assumed)": "as the sequence (P20138 18-364 limits assumed) above, with L21A counted along it", "assay": "flow cytometry, alanine scan", "procedure": "as §2, §3"}, "[11]": {"target": "human CD33 F44A (human, UniProt P20138 18-364)", "sequence (P20138 18-364 F44A limits assumed)": "as the sequence (P20138 18-364 limits assumed) above, with F27A counted along it", "assay": "flow cytometry, alanine scan", "procedure": "as §2, §3"}, "[12]": {"target": "human CD33 W22A (human, UniProt P20138 18-364)", "sequence (P20138 18-364 W22A limits assumed)": "as the sequence (P20138 18-364 limits assumed) above, with W5A counted along it", "assay": "flow cytometry, alanine scan", "procedure": "as §2, §3"}, "[13]": {"target": "human CD33 E33A (human, UniProt P20138 18-364)", "sequence (P20138 18-364 E33A limits assumed)": "as the sequence (P20138 18-364 limits assumed) above, with E16A counted along it", "assay": "flow cytometry, alanine scan", "procedure": "as §2, §3"}, "[14]": {"target": "human CD33 C41A (human, UniProt P20138 18-364)", "sequence (P20138 18-364 C41A limits assumed)": "as the sequence (P20138 18-364 limits assumed) above, with C24A counted along it", "assay": "flow cytometry, alanine scan", "procedure": "as §2, §3"}, "[15]": {"target": "human CD33 L35A (human, UniProt P20138 18-364)", "sequence (P20138 18-364 L35A limits assumed)": "as the sequence (P20138 18-364 limits assumed) above, with L18A counted along it", "assay": "flow cytometry, alanine scan", "procedure": "as §2, §3"}, "[16]": {"target": "human CD33 T42A (human, UniProt P20138 18-364)", "sequence (P20138 18-364 T42A limits assumed)": "as the sequence (P20138 18-364 limits assumed) above, with T25A counted along it", "assay": "flow cytometry, alanine scan", "procedure": "as §2, §3"}, "[17]": {"target": "human CD33 V29A (human, UniProt P20138 18-364)", "sequence (P20138 18-364 V29A limits assumed)": "as the sequence (P20138 18-364 limits assumed) above, with V12A counted along it", "assay": "flow cytometry, alanine scan", "procedure": "as §2, §3"}, "[18]": {"target": "human CD33 Q24A (human, UniProt P20138 18-364)", "sequence (P20138 18-364 Q24A limits assumed)": "as the sequence (P20138 18-364 limits assumed) above, with Q7A counted along it", "assay": "flow cytometry, alanine scan", "procedure": "as §2, §3"}, "[19]": {"target": "human CD33 Q32A (human, UniProt P20138 18-364)", "sequence (P20138 18-364 Q32A limits assumed)": "as the sequence (P20138 18-364 limits assumed) above, with Q15A counted along it", "assay": "flow cytometry, alanine scan", "procedure": "as §2, §3"}, "[20]": {"target": "human CD33 T30A (human, UniProt P20138 18-364)", "sequence (P20138 18-364 T30A limits assumed)": "as the sequence (P20138 18-364 limits assumed) above, with T13A counted along it", "assay": "flow cytometry, alanine scan", "procedure": "as §2, §3"}, "[21]": {"target": "human CD33 H45A (human, UniProt P20138 18-364)", "sequence (P20138 18-364 H45A limits assumed)": "as the sequence (P20138 18-364 limits assumed) above, with H28A counted along it", "assay": "flow cytometry, alanine scan", "procedure": "as §2, §3"}, "[22]": {"target": "human CD33 S28A (human, UniProt P20138 18-364)", "sequence (P20138 18-364 S28A limits assumed)": "as the sequence (P20138 18-364 limits assumed) above, with S11A counted along it", "assay": "flow cytometry, alanine scan", "procedure": "as §2, §3"}, "[23]": {"target": "human CD33 P19A (human, UniProt P20138 18-364)", "sequence (P20138 18-364 P19A limits assumed)": "as the sequence (P20138 18-364 limits assumed) above, with P2A counted along it", "assay": "flow cytometry, alanine scan", "procedure": "as §2, §3"}, "[24]": {"target": "human CD33 V37A (human, UniProt P20138 18-364)", "sequence (P20138 18-364 V37A limits assumed)": "as the sequence (P20138 18-364 limits assumed) above, with V20A counted along it", "assay": "flow cytometry, alanine scan", "procedure": "as §2, §3"}, "[25]": {"target": "human CD33 F43A (human, UniProt P20138 18-364)", "sequence (P20138 18-364 F43A limits assumed)": "as the sequence (P20138 18-364 limits assumed) above, with F26A counted along it", "assay": "flow cytometry, alanine scan", "procedure": "as §2, §3"}, "[26]": {"target": "human CD33 V31A (human, UniProt P20138 18-364)", "sequence (P20138 18-364 V31A limits assumed)": "as the sequence (P20138 18-364 limits assumed) above, with V14A counted along it", "assay": "flow cytometry, alanine scan", "procedure": "as §2, §3"}, "[27]": {"target": "human CD33 C36A (human, UniProt P20138 18-364)", "sequence (P20138 18-364 C36A limits assumed)": "as the sequence (P20138 18-364 limits assumed) above, with C19A counted along it", "assay": "flow cytometry, alanine scan", "procedure": "as §2, §3"}, "[28]": {"target": "human CD33 L23A (human, UniProt P20138 18-364)", "sequence (P20138 18-364 L23A limits assumed)": "as the sequence (P20138 18-364 limits assumed) above, with L6A counted along it", "assay": "flow cytometry, alanine scan", "procedure": "as §2, §3"}, "[29]": {"target": "human CD33 E27A (human, UniProt P20138 18-364)", "sequence (P20138 18-364 E27A limits assumed)": "as the sequence (P20138 18-364 limits assumed) above, with E10A counted along it", "assay": "flow cytometry, alanine scan", "procedure": "as §2, §3"}, "[30]": {"target": "T1, human wild-type CD33", "assay": "flow cytometry, IgG at 0.25 ug/ml on HEK293-T cells expressing CD33 against vector alone", "procedure": "(§4) Binding of the antibodies to the transfected cells and the optimal assay conditions were evaluated in 384-well format. Detection of cellular expression was measured via high-throughput flow cytometry. Serial dilutions of each antibody were tested for immunoreactivity against cells expressing CD33 or vector alone. The optimal screening concentration for each antibody was determined based on the raw signal values and signal-to-background calculations. Each point represents the mean of four replicates."}, "[31]": {"target": "T1, human wild-type CD33", "assay": "flow cytometry, IgG at 0.50 ug/ml on HEK293-T cells expressing CD33 against vector alone", "procedure": "as §4"}, "[32]": {"target": "T1, human wild-type CD33", "assay": "flow cytometry, IgG at 0.50 ug/ml on HEK293-T cells expressing CD33 against vector alone", "remark": "listed apart in the source", "procedure": "as §4"}, "[33]": {"target": "T1, human wild-type CD33", "assay": "flow cytometry, Fab at 0.25 ug/ml on HEK293-T cells expressing CD33 against vector alone", "remark": "listed apart in the source", "procedure": "as §1"}}}
{"binder": "Refmab #1 Fab fragment (Fab, V domains shown) VH: EVQLVQSGAEVKKPGSSVKVSCKASGYTITDSNIHWVRQAPGQSLEWIGYIYPYNGGTDYNQKFKNRATLTVDNPTNTAYMELSSLRSEDTAFYYCVNGNPWLAYWGQGTLVTVSS VL: DIQLTQSPSTLSASVGDRVTITCRASESLDNYGIRFLTWFQQKPGKAPKLLMYAASNQGSGVPSRFSGSGSGTEFTLTISSLQPDDFATYYCQQTKEVPWSFGQGTKVEVK", "values": [{"measurement": "Signal:Background", "setting": "[1]", "value": "33 signal:background ratio"}]}
{"binder": "Refmab #5 (antibody, V domains shown, The alanine scan used IgG or Fab) VH: QVQLVQSGAEVKKPGASVKVSCKASGYTFTNYDINWVRQAPGQGLEWIGWIYPGDGSTKYNEKFKAKATLTADTSTSTAYMELRSLRSDDTAVYYCASGYEDAMDYWGQGTTVTVSS VL: DIQMTQSPSSLSASVGDRVTINCKASQDINSYLSWFQQKPGKAPKTLIYRANRLVDGVPSRFSGSGSGQDYTLTISSLQPEDFATYYCLQYDEFPLTFGGGTKVEIK", "values": [{"measurement": "Mean % WT Binding", "setting": "[2]", "value": "101 % of WT"}, {"measurement": "Mean % WT Binding", "setting": "[3]", "value": "139 % of WT"}, {"measurement": "Mean % WT Binding", "setting": "[4]", "value": "116 % of WT"}, {"measurement": "Mean % WT Binding", "setting": "[5]", "value": "197 % of WT"}, {"measurement": "Mean % WT Binding", "setting": "[6]", "value": "94.4 % of WT"}, {"measurement": "Mean % WT Binding", "setting": "[7]", "value": "143 % of WT"}, {"measurement": "Mean % WT Binding", "setting": "[8]", "value": "117 % of WT"}, {"measurement": "Mean % WT Binding", "setting": "[9]", "value": "104 % of WT"}, {"measurement": "Mean % WT Binding", "setting": "[10]", "value": "180 % of WT"}, {"measurement": "Mean % WT Binding", "setting": "[11]", "value": "122 % of WT"}, {"measurement": "Mean % WT Binding", "setting": "[12]", "value": "114 % of WT"}, {"measurement": "Mean % WT Binding", "setting": "[13]", "value": "106 % of WT"}, {"measurement": "Mean % WT Binding", "setting": "[14]", "value": "30.9 % of WT"}, {"measurement": "Mean % WT Binding", "setting": "[15]", "value": "112 % of WT"}, {"measurement": "Mean % WT Binding", "setting": "[16]", "value": "115 % of WT"}, {"measurement": "Mean % WT Binding", "setting": "[17]", "value": "122 % of WT"}, {"measurement": "Mean % WT Binding", "setting": "[18]", "value": "115 % of WT"}, {"measurement": "Mean % WT Binding", "setting": "[19]", "value": "148 % of WT"}, {"measurement": "Mean % WT Binding", "setting": "[20]", "value": "118 % of WT"}, {"measurement": "Mean % WT Binding", "setting": "[21]", "value": "58.4 % of WT"}, {"measurement": "Mean % WT Binding", "setting": "[22]", "value": "105 % of WT"}, {"measurement": "Mean % WT Binding", "setting": "[23]", "value": "114 % of WT"}, {"measurement": "Mean % WT Binding", "setting": "[24]", "value": "148 % of WT"}, {"measurement": "Mean % WT Binding", "setting": "[25]", "value": "87.8 % of WT"}, {"measurement": "Mean % WT Binding", "setting": "[26]", "value": "112 % of WT"}, {"measurement": "Mean % WT Binding", "setting": "[27]", "value": "137 % of WT"}, {"measurement": "Mean % WT Binding", "setting": "[28]", "value": "118 % of WT"}, {"measurement": "Mean % WT Binding", "setting": "[29]", "value": "186 % of WT"}]}
{"binder": "Refmab #5 (antibody, human IgG1, V domains shown, Full-length MAb format, human IgG1 Fc silent (PG-LALA)) VH: QVQLVQSGAEVKKPGASVKVSCKASGYTFTNYDINWVRQAPGQGLEWIGWIYPGDGSTKYNEKFKAKATLTADTSTSTAYMELRSLRSDDTAVYYCASGYEDAMDYWGQGTTVTVSS VL: DIQMTQSPSSLSASVGDRVTINCKASQDINSYLSWFQQKPGKAPKTLIYRANRLVDGVPSRFSGSGSGQDYTLTISSLQPEDFATYYCLQYDEFPLTFGGGTKVEIK", "values": [{"measurement": "Signal:Background", "setting": "[30]", "value": "37 signal:background ratio"}]}
{"binder": "Refmab #2 (antibody, human IgG1, V domains shown, Full-length MAb format, human IgG1 Fc silent (PG-LALA)) VH: QVQLVQSGAEVKKPGSSVKVSCKASGGTFSDYAISWVRQAPGQGLEWMGRIIPILGVADYAQKFQGRVTITADKSTRTAYMELSSLRSEDTAVYYCARNWADAFDIWGQGTMVTVSS VL: DIQLTQSPSSLSASVGDRVTITCRASQGISSVLAWYQQKPGKAPKLLIYDASSLESGVPSRFSGSGSGTDFTLTISSLQPEDFATYYCQQFDSSITFGQGTKLEIK", "values": [{"measurement": "Signal:Background", "setting": "[31]", "value": "59 signal:background ratio"}]}
{"binder": "Refmab #6 (antibody, human IgG1, V domains shown, Full-length MAb format, human IgG1 Fc silent (PG-LALA)) VH: QVQLQQPGAEVVKPGASVKMSCKASGYTFTSYYIHWIKQTPGQGLEWVGVIYPGNDDISYNQKFQGKATLTADKSSTTAYMQLSSLTSEDSAVYYCAREVRLRYFDVWGQGTTVTVSS VL: EIVLTQSPGSLAVSPGERVTMSCKSSQSVFFSSSQKNYLAWYQQIPGQSPRLLIYWASTRESGVPDRFTGSGSGTDFTLTISSVQPEDLAIYYCHQYLSSRTFGQGTKLEIK", "values": [{"measurement": "Signal:Background", "setting": "[32]", "value": "57 signal:background ratio"}]}
{"binder": "Refmab #6 Fab fragment (Fab, V domains shown) VH: QVQLQQPGAEVVKPGASVKMSCKASGYTFTSYYIHWIKQTPGQGLEWVGVIYPGNDDISYNQKFQGKATLTADKSSTTAYMQLSSLTSEDSAVYYCAREVRLRYFDVWGQGTTVTVSS VL: EIVLTQSPGSLAVSPGERVTMSCKSSQSVFFSSSQKNYLAWYQQIPGQSPRLLIYWASTRESGVPDRFTGSGSGTDFTLTISSVQPEDLAIYYCHQYLSSRTFGQGTKLEIK", "values": [{"measurement": "Signal:Background", "setting": "[33]", "value": "51 signal:background ratio"}]}
